Laboratory results taken from publication PMC7397750, “Angiopoietin-like protein 8 differentially regulates ANGPTL3 and ANGPTL4 during postprandial partitioning of fatty acids[S]” (Journal of Lipid Research, 2020).
Where “and” joins values, the source holds several entries; their conditions need not be identical. Equal entries are not always repeated.

B5: recombinant ANGPTL4/8 complex (complex, human)
chain 1: GPVQSKSPRFASWDEMNVLAHGLLQLGQGLREHAERTRSQLSALERRLSACGSACQGTEGSTDLPLAPESRVDPEVLHSLQTQLKAQNSRIQQLFHKVAQQQRHLEKQHLRIQHLQSQFGLLDHKHLDHEVAKPARRKRLPEMAQPVDPAHNVSRLHRLPRDCQELFQVGERQSGLFEIQPQGSPPFLVNCKMTSDGGWTVIQRRHDGSVDFNRPWEAYKAGFGDPHGEFWLGLEKVHSITGDRNSRLAVQLRDWDGNAELLQFSVHLGGEDTAYSLQLTAPVAGQLGATTVPPSGLSVPFSTWDQDHDLRRDKNCAKSLSGGWWFGTCSHSNLNGQYFRSIPQQRQKLKKGIFWKTWRGRYYPLQATTMLIQPMAAEAAS
chain 2: APMGGPELAQHEELTLLFHGTLQLGQALNGVYRTTEGRLTKARNSLGLYGRTIELLGQEVSRGRDAAQELRASLLETQMEEDILQLQAEATAEVLGEVAQAQKVLRDSVQRLEVQLRSAWLGPAYREFEVLKAHADKQSHILWALTGHVQRQRREMVAQQHRLRQIQERLHTAALPA
B6: LPL (lipoprotein lipase), avidin-tagged (enzyme)
chain: DRITGGKDFRDIESKFALRTPEDTAEDTCHLIPGVTESVANCHFNHSSKTFVVIHGWTVTGMYESWVPKLVAALYKREPDSNVIVVDWLSRAQQHYPVSAGYTKLVGQDVAKFMNWMADEFNYPLGNVHLLGYSLGAHAAGIAGSLTNKKVNRITGLDPAGPNFEYAEAPSRLSPDDADFVDVLHTFTRGSPGRSIGIQKPVGHVDIYPNGGTFQPGCNIGEALRVIAERGLGDVDQLVKCSHERSVHLFIDSLLNEENPSKAYRCNSKEAFEKGLCLSCRKNRCNNMGYEINKVRAKRSSKMYLKTRSQMPYKVFHYQVKIHFSGTESNTYTNQAFEISLYGTVAESENIPFTLPEVSTNKTYSFLLYTEVDIGELLMLKLKWISDSYFSWSNWWSSPGFDIGKIRVKAGETQKKVIFCSREKMSYLQKGKSPVIFVKCHDKSLNRKSG
modifications: biotin/Avi-type tag ('avidin-tagged') for capture on streptavidin, tag omitted; N-glycosylated. The species is not printed. The BLI methods give LPL as from Sigma, whose usual LPL is purified from …

Experiments:
[1] = target: ANGPTL8 (angiopoietin-like protein 8), endogenous in human serum (human (endogenous in serum)) (UniProt Q6UXH0); experiment: affinity purification with mass spectrometry; immunoprecipitation of endogenous complexes from human serum with biotinylated anti-ANGPTL antibodies and streptavidin magnetic beads; trypsin/Lys-C digest; LC-MRM with spiked stable-isotope-labelled peptides; molar ratios from two peptides for each protein
[2] = target: B6; experiment: cell-based or functional assay
[3] = target: T1, ANGPTL8 (angiopoietin-like protein 8), endogenous in human serum (human (endogenous in serum), UniProt Q6UXH0 22-198); experiment: affinity purification with mass spectrometry; immunoprecipitation of endogenous complexes from human serum with biotinylated anti-ANGPTL antibodies and streptavidin magnetic beads; trypsin/Lys-C digest; LC-MRM with spiked stable-isotope-labelled peptides; molar ratios from two peptides for each protein; conditions: partners not purified
T1 construct: ANGPTL8, human, circulating protein of donor serum; also called ANGPLT8; source: endogenous, human serum
T1 sequence (looked up): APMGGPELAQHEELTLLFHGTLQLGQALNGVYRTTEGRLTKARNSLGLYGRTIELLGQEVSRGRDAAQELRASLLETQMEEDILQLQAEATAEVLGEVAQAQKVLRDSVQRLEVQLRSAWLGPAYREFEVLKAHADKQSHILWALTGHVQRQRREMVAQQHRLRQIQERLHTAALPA

[4] = target: B5; experiment: BLI; Octet RED96e; avidin-tagged LPL immobilised on streptavidin biosensors; 50 nM ANGPTL protein or complex; dissociation in buffer-only wells; conditions: both partners purified

ANGPTL3 (angiopoietin-like protein 3), endogenous in human serum (natural protein)
stoichiometry N (ANGPTL3 per ANGPTL8 (protein ratio)) [1]: 3.4 and 3.5

B1: C-terminal HIS-tagged ANGPTL3 (natural protein, human, UniProt Q9Y5C1 17-460, looked up)
chain: SRIDQDNSSFDSLSPEPKSRFAMLDDVKILANGLLQLGHGLKDFVHKTKGQINDIFQKLNIFDQSFYDLSLQTSEIKEEEKELRRTTYKLQVKNEEVKNMSLELNSKLESLLEEKILLQQKVKYLEEQLTNLIQNQPETPEHPEVTSLKTFVEKQDNSIKDLLQTVEDQYKQLNQQHSQIKEIENQLRRTSIQEPTEISLSSKPRAPRTTPFLQLNEIRNVKHDGIPAECTTIYNRGEHTSGMYAIRPSNSQVFHVYCDVISGSPWTLIQHRIDGSQNFNETWENYKYGFGRLDGEFWLGLEKIYSIVKQSNYVLRIELEDWKDNKHYIEYSFYLGNHETNYTLHLVAITGNVPNAIPENKDLVFSTWDHKAKGHFNCPEGYSGGWWWHDECGENNLNGKYNKPRAKSKPERRRGLSWKSQNGRLYSIKSTKMLIHPTDSESFE
notes: source: HEK293, transient, purified (Ni-NTA, SEC)
IC50 of inhibition of LPL enzymatic activity; human LPL-stable expression cells, BODIPY-TG (EnzChek) substrate [2]: 26 nM

B2: recombinant ANGPTL3/8 complex (complex, human)
chain 1: SRIDQDNSSFDSLSPEPKSRFAMLDDVKILANGLLQLGHGLKDFVHKTKGQINDIFQKLNIFDQSFYDLSLQTSEIKEEEKELRRTTYKLQVKNEEVKNMSLELNSKLESLLEEKILLQQKVKYLEEQLTNLIQNQPETPEHPEVTSLKTFVEKQDNSIKDLLQTVEDQYKQLNQQHSQIKEIENQLRRTSIQEPTEISLSSKPRAPRTTPFLQLNEIRNVKHDGIPAECTTIYNRGEHTSGMYAIRPSNSQVFHVYCDVISGSPWTLIQHRIDGSQNFNETWENYKYGFGRLDGEFWLGLEKIYSIVKQSNYVLRIELEDWKDNKHYIEYSFYLGNHETNYTLHLVAITGNVPNAIPENKDLVFSTWDHKAKGHFNCPEGYSGGWWWHDECGENNLNGKYNKPRAKSKPERRRGLSWKSQNGRLYSIKSTKMLIHPTDSESFE
chain 2: APMGGPELAQHEELTLLFHGTLQLGQALNGVYRTTEGRLTKARNSLGLYGRTIELLGQEVSRGRDAAQELRASLLETQMEEDILQLQAEATAEVLGEVAQAQKVLRDSVQRLEVQLRSAWLGPAYREFEVLKAHADKQSHILWALTGHVQRQRREMVAQQHRLRQIQERLHTAALPA
IC50 of inhibition of LPL enzymatic activity; human LPL-stable expression cells, BODIPY-TG (EnzChek) substrate [2]: 0.14 nM

B3: C-terminal HIS-tagged ANGPTL4 (natural protein, human, UniProt Q9BY76-1 26-406, looked up)
chain: GPVQSKSPRFASWDEMNVLAHGLLQLGQGLREHAERTRSQLSALERRLSACGSACQGTEGSTDLPLAPESRVDPEVLHSLQTQLKAQNSRIQQLFHKVAQQQRHLEKQHLRIQHLQSQFGLLDHKHLDHEVAKPARRKRLPEMAQPVDPAHNVSRLHRLPRDCQELFQVGERQSGLFEIQPQGSPPFLVNCKMTSDGGWTVIQRRHDGSVDFNRPWEAYKAGFGDPHGEFWLGLEKVHSITGDRNSRLAVQLRDWDGNAELLQFSVHLGGEDTAYSLQLTAPVAGQLGATTVPPSGLSVPFSTWDQDHDLRRDKNCAKSLSGGWWFGTCSHSNLNGQYFRSIPQQRQKLKKGIFWKTWRGRYYPLQATTMLIQPMAAEAAS
IC50 of inhibition of LPL enzymatic activity; human LPL-stable expression cells, BODIPY-TG (EnzChek) substrate [2]: 0.29 nM
IC50 of inhibition of LPL enzymatic activity; human LPL-stable expression cells, VLDL substrate, NEFA released [2]: 0.44 nM

B4: ANGPTL4 (angiopoietin-like protein 4), endogenous in human serum, N-terminally intact (natural protein, human (endogenous in serum), UniProt Q9BY76-1 26-406, looked up)
chain: GPVQSKSPRFASWDEMNVLAHGLLQLGQGLREHAERTRSQLSALERRLSACGSACQGTEGSTDLPLAPESRVDPEVLHSLQTQLKAQNSRIQQLFHKVAQQQRHLEKQHLRIQHLQSQFGLLDHKHLDHEVAKPARRKRLPEMAQPVDPAHNVSRLHRLPRDCQELFQVGERQSGLFEIQPQGSPPFLVNCKMTSDGGWTVIQRRHDGSVDFNRPWEAYKAGFGDPHGEFWLGLEKVHSITGDRNSRLAVQLRDWDGNAELLQFSVHLGGEDTAYSLQLTAPVAGQLGATTVPPSGLSVPFSTWDQDHDLRRDKNCAKSLSGGWWFGTCSHSNLNGQYFRSIPQQRQKLKKGIFWKTWRGRYYPLQATTMLIQPMAAEAAS
notes: ANGPTL4, human, circulating protein of donor serum precipitated or captured with an N-terminal ANGPTL4 antibody; Full-length or N-terminal fragment; also called active ANGPTL4; source: endogenous, human serum
stoichiometry N [3]: 0.8 ANGPTL4 per ANGPTL8 (protein ratio)

B5
IC50 of inhibition of LPL enzymatic activity; human LPL-stable expression cells, BODIPY-TG (EnzChek) substrate [2]: 37 nM
IC50 of inhibition of LPL enzymatic activity; human LPL-stable expression cells, VLDL substrate, NEFA released [2]: 105 nM

B6
Kd [4]: < 0.001 nM
koff [4]: < 1e-07 s⁻¹
kon [4]: 48000 M⁻¹ s⁻¹
